Test results reported in US20260015399A1 (Boehringer Ingelheim, published 2026).
*1 amine or outer side, *2 acyl side, *3 side chain or, on linkers, in order; H or OH if unused. Side-chain parts run from the residue outwards. The star is where a group is joined. C18 diacid = O=C(O)CCCCCCCCCCCCCCCCC(=O)*; γGlu = O=C(O)[C@H](CCC(=O)[*:2])N[*:1]; Isovaleryl = CC(C)CC(=O)*; Ahx = NCCCCCC(=O)O

Assays:
human NPY2 receptor [1] = molecular target: T1, human NPY2 receptor (human, UniProt P49146 1-381); experiment: cell-based or functional assay
T1 sequence (looked up): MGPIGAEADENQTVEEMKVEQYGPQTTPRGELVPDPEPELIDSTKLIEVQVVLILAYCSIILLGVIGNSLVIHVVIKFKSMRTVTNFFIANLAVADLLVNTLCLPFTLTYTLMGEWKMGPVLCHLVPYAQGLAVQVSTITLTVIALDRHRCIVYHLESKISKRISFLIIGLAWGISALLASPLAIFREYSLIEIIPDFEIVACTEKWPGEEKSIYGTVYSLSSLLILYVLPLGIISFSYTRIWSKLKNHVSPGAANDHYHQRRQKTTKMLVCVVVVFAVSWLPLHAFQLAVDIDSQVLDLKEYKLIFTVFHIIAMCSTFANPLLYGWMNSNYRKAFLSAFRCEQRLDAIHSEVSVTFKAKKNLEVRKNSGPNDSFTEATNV

human NPY5 receptor = molecular target: T2, human NPY5 receptor (human, UniProt Q15761 1-445); experiment: cell-based or functional assay
T2 sequence (looked up): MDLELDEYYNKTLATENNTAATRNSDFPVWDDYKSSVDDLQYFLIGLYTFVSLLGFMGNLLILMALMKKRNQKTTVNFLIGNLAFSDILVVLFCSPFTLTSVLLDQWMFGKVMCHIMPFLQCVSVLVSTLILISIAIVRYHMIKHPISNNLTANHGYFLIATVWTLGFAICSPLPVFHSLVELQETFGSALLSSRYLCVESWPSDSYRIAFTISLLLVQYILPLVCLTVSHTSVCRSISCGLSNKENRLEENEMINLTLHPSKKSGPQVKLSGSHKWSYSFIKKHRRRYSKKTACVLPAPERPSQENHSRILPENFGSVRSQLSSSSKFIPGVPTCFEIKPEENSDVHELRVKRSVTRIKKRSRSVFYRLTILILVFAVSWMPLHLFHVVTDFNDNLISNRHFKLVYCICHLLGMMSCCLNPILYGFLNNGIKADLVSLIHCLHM

human NPY4 receptor = human NPY4 receptor (human, UniProt P50391 1-375); experiment: cell-based or functional assay
Sequence of human NPY4 receptor (P50391 whole entry): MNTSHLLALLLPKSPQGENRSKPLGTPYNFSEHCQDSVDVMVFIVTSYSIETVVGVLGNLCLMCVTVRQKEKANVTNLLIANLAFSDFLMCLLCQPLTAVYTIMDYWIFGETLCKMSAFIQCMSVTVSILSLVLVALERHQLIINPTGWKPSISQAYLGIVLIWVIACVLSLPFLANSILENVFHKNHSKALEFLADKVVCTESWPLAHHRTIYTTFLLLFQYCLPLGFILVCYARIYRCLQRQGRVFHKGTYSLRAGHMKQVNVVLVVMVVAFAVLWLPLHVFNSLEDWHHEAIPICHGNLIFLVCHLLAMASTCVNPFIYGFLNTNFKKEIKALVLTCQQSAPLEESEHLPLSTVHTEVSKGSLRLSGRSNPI

human NPY1 receptor = molecular target: T3, human NPY1 receptor (human, UniProt P25929 1-384); experiment: cell-based or functional assay
T3 sequence (looked up): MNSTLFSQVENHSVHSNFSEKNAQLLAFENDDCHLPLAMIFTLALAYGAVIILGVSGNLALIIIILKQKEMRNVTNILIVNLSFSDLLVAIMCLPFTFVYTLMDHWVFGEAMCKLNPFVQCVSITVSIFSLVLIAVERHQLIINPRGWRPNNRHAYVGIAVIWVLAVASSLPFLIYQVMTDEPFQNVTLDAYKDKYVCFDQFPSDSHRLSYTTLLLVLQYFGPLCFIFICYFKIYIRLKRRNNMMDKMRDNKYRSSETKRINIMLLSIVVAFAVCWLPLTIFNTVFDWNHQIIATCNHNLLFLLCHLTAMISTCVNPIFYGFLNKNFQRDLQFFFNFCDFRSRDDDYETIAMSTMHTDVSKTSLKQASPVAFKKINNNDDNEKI

human NPY2 receptor [2] = molecular target: T1, human NPY2 receptor; experiment: RLB: displacement of 125I-PYY(1-36) from hNPY2R membranes

B1: Compound 55 (peptide)
peptide: Isovaleryl-APEK([Ahx-γGlu-C18 diacid])PEEDASEEEIQRYYVSLRHYYNWLTRQRY-NH2
SMILES: CC[C@H](C)[C@H](NC(=O)[C@H](CCC(=O)O)NC(=O)[C@H](CCC(=O)O)NC(=O)[C@H](CCC(=O)O)NC(=O)[C@H](CO)NC(=O)[C@H](C)NC(=O)[C@H](CC(=O)O)NC(=O)[C@H](CCC(=O)O)NC(=O)[C@H](CCC(=O)O)NC(=O)[C@@H]1CCCN1C(=O)[C@H](CCCCNC(=O)CCCCCNC(=O)CC[C@H](NC(=O)CCCCCCCCCCCCCCCCC(=O)O)C(=O)O)NC(=O)[C@H](CCC(=O)O)NC(=O)[C@@H]1CCCN1C(=O)[C@H](C)NC(=O)CC(C)C)C(=O)N[C@@H](CCC(N)=O)C(=O)N[C@@H](CCCNC(=N)N)C(=O)N[C@@H](Cc1ccc(O)cc1)C(=O)N[C@@H](Cc1ccc(O)cc1)C(=O)N[C@H](C(=O)N[C@@H](CO)C(=O)N[C@@H](CC(C)C)C(=O)N[C@@H](CCCNC(=N)N)C(=O)N[C@@H](Cc1c[nH]cn1)C(=O)N[C@@H](Cc1ccc(O)cc1)C(=O)N[C@@H](Cc1ccc(O)cc1)C(=O)N[C@@H](CC(N)=O)C(=O)N[C@@H](Cc1c[nH]c2ccccc12)C(=O)N[C@@H](CC(C)C)C(=O)N[C@H](C(=O)N[C@@H](CCCNC(=N)N)C(=O)N[C@@H](CCC(N)=O)C(=O)N[C@@H](CCCNC(=N)N)C(=O)N[C@@H](Cc1ccc(O)cc1)C(N)=O)[C@@H](C)O)C(C)C
Human NPY2 receptor [1]
  EC50, HTRF cAMP Gi assay: 0.352 nM
Human NPY5 receptor
  EC50, HTRF cAMP Gi assay: > 5000 nM
Human NPY4 receptor
  EC50, HTRF cAMP Gi assay: > 5000 nM
Human NPY1 receptor
  EC50, HTRF cAMP Gi assay: > 5000 nM
Human NPY2 receptor [2]
  Ki: 2.96 nM

B2: Compound 118 (peptide)
peptide: Isovaleryl-APEK([Ahx-γGlu-C18 diacid])PPEDAEPEEIQRYYVSLRHYYNWLTRQRY-NH2
SMILES: CC[C@H](C)[C@H](NC(=O)[C@H](CCC(=O)O)NC(=O)[C@H](CCC(=O)O)NC(=O)[C@@H]1CCCN1C(=O)[C@H](CCC(=O)O)NC(=O)[C@H](C)NC(=O)[C@H](CC(=O)O)NC(=O)[C@H](CCC(=O)O)NC(=O)[C@@H]1CCCN1C(=O)[C@@H]1CCCN1C(=O)[C@H](CCCCNC(=O)CCCCCNC(=O)CC[C@H](NC(=O)CCCCCCCCCCCCCCCCC(=O)O)C(=O)O)NC(=O)[C@H](CCC(=O)O)NC(=O)[C@@H]1CCCN1C(=O)[C@H](C)NC(=O)CC(C)C)C(=O)N[C@@H](CCC(N)=O)C(=O)N[C@@H](CCCNC(=N)N)C(=O)N[C@@H](Cc1ccc(O)cc1)C(=O)N[C@@H](Cc1ccc(O)cc1)C(=O)N[C@H](C(=O)N[C@@H](CO)C(=O)N[C@@H](CC(C)C)C(=O)N[C@@H](CCCNC(=N)N)C(=O)N[C@@H](Cc1c[nH]cn1)C(=O)N[C@@H](Cc1ccc(O)cc1)C(=O)N[C@@H](Cc1ccc(O)cc1)C(=O)N[C@@H](CC(N)=O)C(=O)N[C@@H](Cc1c[nH]c2ccccc12)C(=O)N[C@@H](CC(C)C)C(=O)N[C@H](C(=O)N[C@@H](CCCNC(=N)N)C(=O)N[C@@H](CCC(N)=O)C(=O)N[C@@H](CCCNC(=N)N)C(=O)N[C@@H](Cc1ccc(O)cc1)C(N)=O)[C@@H](C)O)C(C)C
Human NPY2 receptor [1]
  EC50, HTRF cAMP Gi assay: 0.161 nM
Human NPY5 receptor
  EC50, HTRF cAMP Gi assay: > 5000 nM
Human NPY4 receptor
  EC50, HTRF cAMP Gi assay: > 5000 nM
Human NPY1 receptor
  EC50, HTRF cAMP Gi assay: > 5000 nM
Human NPY2 receptor [2]
  Ki: 1 nM

B3: Compound 114 (peptide)
peptide: Isovaleryl-APAK([Ahx-γGlu-C18 diacid])PEEDATPEEIQRYYVSLRHYYNWLTRQRY-NH2
SMILES: CC[C@H](C)[C@H](NC(=O)[C@H](CCC(=O)O)NC(=O)[C@H](CCC(=O)O)NC(=O)[C@@H]1CCCN1C(=O)[C@@H](NC(=O)[C@H](C)NC(=O)[C@H](CC(=O)O)NC(=O)[C@H](CCC(=O)O)NC(=O)[C@H](CCC(=O)O)NC(=O)[C@@H]1CCCN1C(=O)[C@H](CCCCNC(=O)CCCCCNC(=O)CC[C@H](NC(=O)CCCCCCCCCCCCCCCCC(=O)O)C(=O)O)NC(=O)[C@H](C)NC(=O)[C@@H]1CCCN1C(=O)[C@H](C)NC(=O)CC(C)C)[C@@H](C)O)C(=O)N[C@@H](CCC(N)=O)C(=O)N[C@@H](CCCNC(=N)N)C(=O)N[C@@H](Cc1ccc(O)cc1)C(=O)N[C@@H](Cc1ccc(O)cc1)C(=O)N[C@H](C(=O)N[C@@H](CO)C(=O)N[C@@H](CC(C)C)C(=O)N[C@@H](CCCNC(=N)N)C(=O)N[C@@H](Cc1c[nH]cn1)C(=O)N[C@@H](Cc1ccc(O)cc1)C(=O)N[C@@H](Cc1ccc(O)cc1)C(=O)N[C@@H](CC(N)=O)C(=O)N[C@@H](Cc1c[nH]c2ccccc12)C(=O)N[C@@H](CC(C)C)C(=O)N[C@H](C(=O)N[C@@H](CCCNC(=N)N)C(=O)N[C@@H](CCC(N)=O)C(=O)N[C@@H](CCCNC(=N)N)C(=O)N[C@@H](Cc1ccc(O)cc1)C(N)=O)[C@@H](C)O)C(C)C
Human NPY2 receptor [1]
  EC50, HTRF cAMP Gi assay: 0.186 nM
Human NPY5 receptor
  EC50, HTRF cAMP Gi assay: > 5000 nM
Human NPY4 receptor
  EC50, HTRF cAMP Gi assay: > 5000 nM
Human NPY1 receptor
  EC50, HTRF cAMP Gi assay: > 5000 nM
Human NPY2 receptor [2]
  Ki: 0.95 nM

B4: Compound 136 (peptide)
peptide: Isovaleryl-APEK([Ahx-γGlu-C18 diacid])PEADATPEELQRYYVALRHYYNWLTRQRY-NH2
SMILES: CC(C)CC(=O)N[C@@H](C)C(=O)N1CCC[C@H]1C(=O)N[C@@H](CCC(=O)O)C(=O)N[C@@H](CCCCNC(=O)CCCCCNC(=O)CC[C@H](NC(=O)CCCCCCCCCCCCCCCCC(=O)O)C(=O)O)C(=O)N1CCC[C@H]1C(=O)N[C@@H](CCC(=O)O)C(=O)N[C@@H](C)C(=O)N[C@@H](CC(=O)O)C(=O)N[C@@H](C)C(=O)N[C@H](C(=O)N1CCC[C@H]1C(=O)N[C@@H](CCC(=O)O)C(=O)N[C@@H](CCC(=O)O)C(=O)N[C@@H](CC(C)C)C(=O)N[C@@H](CCC(N)=O)C(=O)N[C@@H](CCCNC(=N)N)C(=O)N[C@@H](Cc1ccc(O)cc1)C(=O)N[C@@H](Cc1ccc(O)cc1)C(=O)N[C@H](C(=O)N[C@@H](C)C(=O)N[C@@H](CC(C)C)C(=O)N[C@@H](CCCNC(=N)N)C(=O)N[C@@H](Cc1c[nH]cn1)C(=O)N[C@@H](Cc1ccc(O)cc1)C(=O)N[C@@H](Cc1ccc(O)cc1)C(=O)N[C@@H](CC(N)=O)C(=O)N[C@@H](Cc1c[nH]c2ccccc12)C(=O)N[C@@H](CC(C)C)C(=O)N[C@H](C(=O)N[C@@H](CCCNC(=N)N)C(=O)N[C@@H](CCC(N)=O)C(=O)N[C@@H](CCCNC(=N)N)C(=O)N[C@@H](Cc1ccc(O)cc1)C(N)=O)[C@@H](C)O)C(C)C)[C@@H](C)O
Human NPY2 receptor [1]
  EC50, HTRF cAMP Gi assay: 0.138 nM
Human NPY5 receptor
  EC50, HTRF cAMP Gi assay: > 5000 nM
Human NPY4 receptor
  EC50, HTRF cAMP Gi assay: > 5000 nM
Human NPY1 receptor
  EC50, HTRF cAMP Gi assay: > 5000 nM
Human NPY2 receptor [2]
  Ki: 1.07 nM

B5: Compound 128 (peptide)
peptide: Isovaleryl-APEK([Ahx-γGlu-C18 diacid])PEEAATPEELQRYYVSLRHYYNWLTRQRY-NH2
SMILES: CC(C)CC(=O)N[C@@H](C)C(=O)N1CCC[C@H]1C(=O)N[C@@H](CCC(=O)O)C(=O)N[C@@H](CCCCNC(=O)CCCCCNC(=O)CC[C@H](NC(=O)CCCCCCCCCCCCCCCCC(=O)O)C(=O)O)C(=O)N1CCC[C@H]1C(=O)N[C@@H](CCC(=O)O)C(=O)N[C@@H](CCC(=O)O)C(=O)N[C@@H](C)C(=O)N[C@@H](C)C(=O)N[C@H](C(=O)N1CCC[C@H]1C(=O)N[C@@H](CCC(=O)O)C(=O)N[C@@H](CCC(=O)O)C(=O)N[C@@H](CC(C)C)C(=O)N[C@@H](CCC(N)=O)C(=O)N[C@@H](CCCNC(=N)N)C(=O)N[C@@H](Cc1ccc(O)cc1)C(=O)N[C@@H](Cc1ccc(O)cc1)C(=O)N[C@H](C(=O)N[C@@H](CO)C(=O)N[C@@H](CC(C)C)C(=O)N[C@@H](CCCNC(=N)N)C(=O)N[C@@H](Cc1c[nH]cn1)C(=O)N[C@@H](Cc1ccc(O)cc1)C(=O)N[C@@H](Cc1ccc(O)cc1)C(=O)N[C@@H](CC(N)=O)C(=O)N[C@@H](Cc1c[nH]c2ccccc12)C(=O)N[C@@H](CC(C)C)C(=O)N[C@H](C(=O)N[C@@H](CCCNC(=N)N)C(=O)N[C@@H](CCC(N)=O)C(=O)N[C@@H](CCCNC(=N)N)C(=O)N[C@@H](Cc1ccc(O)cc1)C(N)=O)[C@@H](C)O)C(C)C)[C@@H](C)O
Human NPY2 receptor [1]
  EC50, HTRF cAMP Gi assay: 0.344 nM
Human NPY5 receptor
  EC50, HTRF cAMP Gi assay: > 5000 nM
Human NPY4 receptor
  EC50, HTRF cAMP Gi assay: > 5000 nM
Human NPY1 receptor
  EC50, HTRF cAMP Gi assay: > 5000 nM
Human NPY2 receptor [2]
  Ki: 2.91 nM
